Experimental data from patent US20030021779A1.

Biological target: C-antigen (human)
Experiment: cell-fixed ELISA, tumor cell lines

fold greater affinity than the control (BGA scFv): 8 to 50 fold
B1: H11-scFv (scFv)
scFv: DIVLTQSPGTLSLSPGERATLSCRASQSVSSSYLAWYQQKPGQAPRLLIYGASTRATGMPDRFSGSGSGTDFTLTISRLEPEDFAVYYCQQYGSSPQTPQITFGGGTKVEIKRTVAAPSVSGGGGSGGGGSGGGGSQVQLVESGGGVVQPGRSLRLSCAASGFPFRSFAMHWVRQALGKGLEWVAVISYDGSTKYYADSVKGRFTISRDTSKNTVYLKMNSLRTEDTAVYYCARDQSLLGDYDHYYGLDVWGKGTTVTVSSGSEQKLISEEDLNHHHHH
